Measurements reported in patent publication US11278600B2, “Human alpha-galactosidase variants” (Codexis, Inc., priority 2014, dated 2022).

Experiments:
Assay type in all cases: biochemical
[1] = HTP-analysis of yeast culture supernatants, no challenge (MUGal hydrolysis); details: activity of the variant/activity of Rd4BB (SEQ ID NO: 15)
Procedure, shortened: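 GLA variants expressed in yeast INVSc1, secreted into SD-Ura broth over 66-84 h at 30° C; clarified supernatants tested without challenge. Supernatant mixed with McIlvaine buffer pH 4.8 and 2 mM MUGal (citrate/KCl, pH 4.6), 37° C for 30-180 min, carbonate-quenched, fluorescence Ex 355/Em 448 nm.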

[2] = HTP-analysis of supernatants pretreated with acid (MUGal hydrolysis); details: activity of the variant/activity of Rd4BB (SEQ ID NO: 15); challenge at pH 3.7
Procedure, shortened: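 Yeast INVSc1 supernatant, GLA variants; acid challenge: McIlvaine pH 3.3-4.3, 37° C., 1-3 h. Assay: MUGal in McIlvaine pH 4.8 plus citrate pH 4.3, 37° C., 30-180 min, Na2CO3 stop, Ex 355/Em 448 nm.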

[3] = HTP-analysis of supernatants pretreated with base (MUGal hydrolysis); details: activity of the variant/activity of Rd4BB (SEQ ID NO: 15); challenge at pH 9.65
Procedure, shortened: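 Fluorescence of released 4-MU (Ex 355 nm, Em 448 nm) after carbonate quench reports MUGal hydrolysis by GLA variants secreted from INVSc1 yeast. Before the acidic (pH 4.3-4.8) 30-180 min reaction at 37° C, supernatants had been pre-incubated at pH 7.0-9.7 for 1-18 h at 37° C.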

| Molecule | Relative Activity of GLA Variants After No Challenge (NC) [1] | Relative Activity of GLA Variants After Challenge at pH 3.7 [2] | Relative Activity of GLA Variants After Challenge at pH 9.65 [3] |
| --- | --- | --- | --- |
| 463 (protein, Synthetic Polypeptide sequence of Variant No. 463 of mature Human GLA) LDNGLARTPTMGWLHWERFMCNLDCQEEPDSCISEKLFMEMAERMVSEGWKDAGYEYLCIDDCWMAPQRDSEGRLQADPQRFPHGIRQLANYVHSKGLKLGIYADVGNKTCAGFPGSFGYYDIDAQTFADWGVDLLKFDGCYCDSLENLADGYKHMSLALNRTGRSIVYSCEWPLYMWPFQKPNYTEIRQYCNHWRNFADIDDSWKSIKSILDWTSRNQERIVDVAGPGGWNDPDMLVIGNFGLSWDQQVTQMALWAIMAAPLFMSNDLRHISPQAKALLQDKDVIAINQDPLGKQGYQLRKGDNFEVWERPLSGDAWAVAIINRQEIGGPRSYTIPVASLGKGVACNPACFITQLLPVKRQLGFYNWTSRLKSHINPTGTVLLQLENTTQMSLKDLL | + (0.5 to 1.5 relative activity over Rd4BB (SEQ ID NO: 15)) | + (0.5 to 1.5 relative activity over Rd4BB (SEQ ID NO: 15)) | + (0.5 to 1.5 relative activity over Rd4BB (SEQ ID NO: 15)) |
| 468 (protein, Synthetic Polypeptide sequence of Variant No. 468 of mature Human GLA) LDNGLARTPTMGWLHWERFMCNLDCQEEPDSCISEKLFMEMAERMVSEGWKDAGYEYLCIDDCWMAPQRDSEGRLQADPQRFPHGIRQLANYVHSKGLKLGIYADVGNKTCAGFPGSFGYYDIDAQTFADWGVDLLKFDGCYCDSLENLADGYKHMSLALNRTGRSIVYSCEWPLYMWPFQKPNYTEIRQYCNHWRNFADIDDSWKSIKSILDWTSRNQERIVDVAGPGGWNDPDMLVIGNFGLSWDQQVTQMALWAIMAAPLFMSNDLRHISPQAKALLQDKDVIAINQDPLGKQGYQLRKGDNFEVWERPLSGDAWAVAIINRQEIGGPRSYTIPVASLGKGVACNPACFITQLLPVKRQLGFYNWTSRLKSHINPTGTVLLQLENQMQMSLKDLL | + (0.5 to 1.5 relative activity over Rd4BB (SEQ ID NO: 15)) | + (0.5 to 1.5 relative activity over Rd4BB (SEQ ID NO: 15)) | + (0.5 to 1.5 relative activity over Rd4BB (SEQ ID NO: 15)) |
| 470 (protein, Synthetic Polypeptide sequence of Variant No. 470 of mature Human GLA) LDNGLARTPTMGWLHWERFMCNLDCQEEPDSCISEKLFMEMAERMVSEGWKDAGYEYLCIDDCWMAPQRDSEGRLQADPQRFPHGIRQLANYVHSKGLKLGIYADVGNKTCAGFPGSFGYYDIDAQTFADWGVDLLKFDGCYCDSLENLADGYKHMSLALNRTGRSIVYSCEWPLYMWPFQKPNYTEIRQYCNHWRNFADIDDSWKSIKSILDWTSRNQERIVDVAGPGGWNDPDMLVIGNFGLSWDQQVTQMALWAIMAAPLFMSNDLRHISPQAKALLQDKDVIAINQDPLGKQGYQLRKGDNFEVWERPLSGDAWAVAIINRQEIGGPRSYTIPVASLGKGVACNPACFITQLLPVKRQLGFYNWTSRLKSHINPTGTVLLQLENTMQRSLKDLL | + (0.5 to 1.5 relative activity over Rd4BB (SEQ ID NO: 15)) | ++ (>1.5 to 2.5 relative activity over Rd4BB (SEQ ID NO: 15)) | + (0.5 to 1.5 relative activity over Rd4BB (SEQ ID NO: 15)) |
| 465 (protein, Synthetic Polypeptide sequence of Variant No. 465 of mature Human GLA) LDNGLARTPTMGWLHWERFMCNLDCQEEPDSCISEKLFMEMAERMVSEGWKDAGYEYLCIDDCWMAPQRDSEGRLQADPQRFPHGIRQLANYVHSKGLKLGIYADVGNKTCAGFPGSFGYYDIDAQTFADWGVDLLKFDGCYCDSLENLADGYKHMSLALNRTGRSIVYSCEWPLYMWPFQKPNYTEIRQYCNHWRNFADIDDSWKSIKSILDWTSRNQERIVDVAGPGGWNDPDMLVIGNFGLSWDQQVTQMALWAIMAAPLFMSNDLRHISPQAKALLQDKDVIAINQDPLGKQGYQLRKGDNFEVWERPLSGDAWAVAIINRQEIGGPRSYTIPVASLGKGVACNPACFITQLLPVKRQLGFYNWTSRLKSHINPTGTVLLQLENTQQMSLKDLL | + (0.5 to 1.5 relative activity over Rd4BB (SEQ ID NO: 15)) | + (0.5 to 1.5 relative activity over Rd4BB (SEQ ID NO: 15)) | + (0.5 to 1.5 relative activity over Rd4BB (SEQ ID NO: 15)) |
| 466 (protein, Synthetic Polypeptide sequence of Variant No. 466 of mature Human GLA) LDNGLARTPTMGWLHWERFMCNLDCQEEPDSCISEKLFMEMAERMVSEGWKDAGYEYLCIDDCWMAPQRDSEGRLQADPQRFPHGIRQLANYVHSKGLKLGIYADVGNKTCAGFPGSFGYYDIDAQTFADWGVDLLKFDGCYCDSLENLADGYKHMSLALNRTGRSIVYSCEWPLYMWPFQKPNYTEIRQYCNHWRNFADIDDSWKSIKSILDWTSRNQERIVDVAGPGGWNDPDMLVIGNFGLSWDQQVTQMALWAIMAAPLFMSNDLRHISPQAKALLQDKDVIAINQDPLGKQGYQLRKGDNFEVWERPLSGDAWAVAIINRQEIGGPRSYTIPVASLGKGVACNPACFITQLLPVKRQLGFYNWTSRLKSHINPTGTVLLQLENTMQESLKDLL | + (0.5 to 1.5 relative activity over Rd4BB (SEQ ID NO: 15)) | + (0.5 to 1.5 relative activity over Rd4BB (SEQ ID NO: 15)) | + (0.5 to 1.5 relative activity over Rd4BB (SEQ ID NO: 15)) |
| 469 (protein, Synthetic Polypeptide sequence of Variant No. 469 of mature Human GLA) LDNGLARTPTMGWLHWERFMCNLDCQEEPDSCISEKLFMEMAERMVSEGWKDAGYEYLCIDDCWMAPQRDSEGRLQADPQRFPHGIRQLANYVHSKGLKLGIYADVGNKTCAGFPGSFGYYDIDAQTFADWGVDLLKFDGCYCDSLENLADGYKHMSLALNRTGRSIVYSCEWPLYMWPFQKPNYTEIRQYCNHWRNFADIDDSWKSIKSILDWTSRNQERIVDVAGPGGWNDPDMLVIGNFGLSWDQQVTQMALWAIMAAPLFMSNDLRHISPQAKALLQDKDVIAINQDPLGKQGYQLRKGDNFEVWERPLSGDAWAVAIINRQEIGGPRSYTIPVASLGKGVACNPACFITQLLPVKRQLGFYNWTSRLKSHINPTGTVLLILENTMQMSLKDLL | + (0.5 to 1.5 relative activity over Rd4BB (SEQ ID NO: 15)) | + (0.5 to 1.5 relative activity over Rd4BB (SEQ ID NO: 15)) | + (0.5 to 1.5 relative activity over Rd4BB (SEQ ID NO: 15)) |
| 467 (protein, Synthetic Polypeptide sequence of Variant No. 467 of mature Human GLA) LDNGLARTPTMGWLHWERFMCNLDCQEEPDSCISEKLFMEMAERMVSEGWKDAGYEYLCIDDCWMAPQRDSEGRLQADPQRFPHGIRQLANYVHSKGLKLGIYADVGNKTCAGFPGSFGYYDIDAQTFADWGVDLLKFDGCYCDSLENLADGYKHMSLALNRTGRSIVYSCEWPLYMWPFQKPNYTEIRQYCNHWRNFADIDDSWKSIKSILDWTSRNQERIVDVAGPGGWNDPDMLVIGNFGLSWDQQVTQMALWAIMAAPLFMSNDLRHISPQAKALLQDKDVIAINQDPLGKQGYQLRKGDNFEVWERPLSGDAWAVAIINRQEIGGPRSYTIPVASLGKGVACNPACFITQLLPVKRQLGFYNWTSRLKSHINPTGTVLLQLENSMQMSLKDLL | + (0.5 to 1.5 relative activity over Rd4BB (SEQ ID NO: 15)) | + (0.5 to 1.5 relative activity over Rd4BB (SEQ ID NO: 15)) | + (0.5 to 1.5 relative activity over Rd4BB (SEQ ID NO: 15)) |
| 368 (protein, Synthetic Polypeptide sequence of Variant No. 368 of mature Human GLA) LDNGLARTPTMGWLHWERFMCNLDCQEEPDSCISEKLFMEMAEAMVSEGWKDAGYEYLCIDDCWMAPQRDSEGRLQADPQRFPHGIRQLANYVHSKGLKLGIYADVGNKTCAGFPGSFGYYDIDAQTFADWGVDLLKFDGCYCDSLENLADGYKHMSLALNRTGRSIVYSCEWPLYMWPFQKPNYTEIRQYCNHWRNFADIDDSWKSIKSILDWTSRNQERIVDVAGPGGWNDPDMLVIGNFGLSWDQQVTQMALWAIMAAPLFMSNDLRHISPQAKALLQDKDVIAINQDPLGKQGYQLRKGDNFEVWERPLSGDAWAVAIINRQEIGGPRSYTIPVASLGKGVACNPACFITQLLPVKRQLGFYNWTSRLKSHINPTGTVLLQLENTMQMSLKDLL | + (0.5 to 1.5 relative activity over Rd4BB (SEQ ID NO: 15)) | + (0.5 to 1.5 relative activity over Rd4BB (SEQ ID NO: 15)) | + (0.5 to 1.5 relative activity over Rd4BB (SEQ ID NO: 15)) |
